# In PMC3852661, “Structural basis of SUFU–GLI interaction in human Hedgehog signalling regulation” (Acta Crystallographica Section D: Biological Crystallography, 2013):
# Experiments:
# [1] = Thermal stability of MBP-SUFU constructs; assay type: physicochemical; conditions: SYPRO Orange, 2.2 µM protein, no peptide, 50 mM Na HEPES pH 7.0, 50 mM NaCl, 5 mM β-mercaptoethanol; heated 20 to 90°C; triplicate
# Protocol: Recombinant MBP-SUFU proteins were diluted to 2.6 µM in 50 mM Na HEPES pH 7.0, 50 mM NaCl, 5 mM β-mercaptoethanol; the peptides GLI1p and GLI1p-SH (Supplementary Table S1b), synthesized by Dr W. Mawby (University of Bristol), were dissolved in the same buffer. Proteins were spun at 14 000g for 20 min at 4°C before adding SYPRO Orange (Molecular Probes) to a final concentration of 6×. Reaction volumes of 25 µl were prepared in 96-well PCR plates with 2.2 µM protein/SYPRO Orange solution and, where applicable, 44 µM peptide. Plates were sealed with optical tape, heated from 20 to 90°C in 12 s 0.2°C steps in an iCycler and fluorescence was detected using an excitation wavelength of 470 nm and an emission wavelength of 570 nm.
# To determine whether the IDR affects the GLI-binding properties of SUFU, we used a human GLI1-derived peptide (GLI1p; residues 115–131; Supplementary Table S1b) containing the highly conserved SYGH motif important for interaction with SUFU (Dunaeva et al., 2003[▶]) in a thermal stability assay with MBP-SUFU-FL and MBP-SUFU-Δ (Fig. 4 ▶ a). The addition of GLI1p stabilized both proteins: T m for MBP-SUFU-FL was shifted by 4°C and that for MBP-SUFU-Δ was shifted by 3.6°C. […] The GLI1 dose dependency of this effect was confirmed in a separate experiment with increasing GLI1p concentrations (Supplementary Fig. S7a).
# GLI1 [2] = assay: Co-immunoprecipitation with GLI1; assay type: binding; conditions: Cos-7 cell lysates, GLI1-FLAG and Myc-SUFU; four independent experiments
# Protocol: Cos-7 cells were transfected separately with C-terminally FLAG-tagged GLI1 in pCMV5 (Andersson et al., 1989[▶]) and N-terminally Myc-tagged SUFU in pCMV-Script (Stratagene) using Fugene 6 (Roche). 24 h after transfection, the cells were lysed with 50 mM Tris–HCl pH 7.4, 150 mM NaCl, 1% NP-40, 0.25% sodium deoxycholate, 1 mM N-ethylmaleimide (Fluka), 1 mM dithiothreitol and cOmplete Mini protease inhibitors (Roche). Normalized lysates were combined and pre-incubated for 6 h. Co-immunoprecipitation was performed for 16 h using agarose-conjugated anti-FLAG M2 (Sigma–Aldrich) and anti-Myc 9b11 (Cell Signaling) antibodies. The beads were washed three times with 500 µl lysis buffer and the bound protein was eluted by boiling the beads in SDS–PAGE sample buffer and analyzed by Western blotting. Samples were separated by SDS–PAGE, transferred to polyvinylidene fluoride Immobilon-P membranes (Millipore) and probed using anti-Myc 71D10 (Cell Signaling) or anti-Myc 9E10 (Santa Cruz) antibodies and anti-DYKDDDDK tag antibody (Cell Signaling). Similar results were obtained in four independent experiments.
# GLI1 [3] = assay: GLI1-induced reporter gene activity in HEK 293 cells; assay type: cell-based; conditions: transient transfection, HEK 293, 12GLI-RE-TKO-luc luciferase reporter, 48 h
# Source text: (§1) SUFU variants with mutated IDR regions, the SUFU-Δ, SUFU-SH, SUFU-SH2 and SUFU-IDRfly constructs, were generated by replacing amino acids 279–360 of N-terminally Myc-tagged full-length SUFU in pcDNA3.1 (Invitrogen) with corresponding sequences synthesized at GenScript USA Inc. (Supplementary Table S1a). HEK 293 cells were transfected with a mixture of GLI1-FLAG or Myc-GLI2 (Roessler et al., 2005[▶]; a kind gift from Erich Roessler) and Myc-SUFU constructs together with 12GLI-RE-TKO-luc luciferase reporter (Kogerman et al., 1999[▶]) and pRL-SV40 (Promega) internal control using Fugene 6 or X-tremeGENE 9 (Roche) transfection reagent. Expression assays were carried out for 48 h, followed by luciferase activity measurements using a Dual Luciferase Activity Assay Kit (Promega). To verify the expression levels of transfected SUFU and GLI constructs, aliquots of cell lysates were separated by SDS–PAGE and subjected to immunoblot analysis as above. The densities of the visualized protein bands were quantified using the ImageJ 1.47v image-analysis and image-processing software (Schneider et al., 2012[▶]).
# GLI2 = assay: GLI2-induced reporter gene activity in HEK 293 cells; assay type: cell-based; conditions: transient transfection, HEK 293, 12GLI-RE-TKO-luc luciferase reporter, 48 h
# Source text: as §1
# [4] = system: Hh pathway, Sufu −/− MEFs; assay: Constitutive Hh pathway activity in Sufu −/− MEFs; assay type: cell-based, mouse; conditions: Gli-BS luciferase reporter
# Protocol: Sufu ^−/− mouse embryonic fibroblast (MEF) cells (Svärd et al., 2006[▶]) were transfected with a mixture of p8x3′Gli-BS LucII or p8x3′Gli-mBS LucII reporter constructs (Sasaki et al., 1997[▶]; generous gifts from Hiroshi Sasaki) together with pRL-SV40 (Promega) internal control using Lipofectamine LTX with Plus reagent (Invitrogen) according to the manufacturer’s instructions. Following transfection, Sufu ^−/− MEF cells were grown until the culture reached confluency (24–48 h) and the cells were then switched to low-serum medium (0.5% FBS) with 100–200 nM SAG (kindly provided by Jan Bergman, Karolinska Institutet), 10 µM purmorphamine (Calbiochem) or Shh conditioned medium (1:4) and grown for an additional 48–72 h. Cell lysis and luciferase activity measurements were performed using a Dual Luciferase Activity Assay Kit (Promega). For statistical evaluation of reporter gene assays, a one-tailed paired Student’s t-test was used. All activity measurements were performed at least three times in independent experiments.
# [5] = R123C germline mutation; ref Aavikko et al., 2012; cited from earlier work
# Source text: SUFU is a tumour suppressor protein that is found to be inactivated most frequently (up to 50%) by germline mutations in children below the age of three presenting with medulloblastoma of the desmoplastic/nodular subtype (Slade et al., 2011[▶]; Brugières et al., 2012[▶]), whereas a somatic mutation frequency of about 10% has been reported for sporadic medulloblastomas of the desmoplastic subtype (Taylor et al., 2002[▶]). Moreover, germline or somatic mutations in the SUFU gene have recently been described in association with meningioma and chondrosarcoma (Aavikko et al., 2012[▶]; Kijima et al. ...
# trypsin = assay: Limited proteolysis with trypsin; assay type: physicochemical; conditions: 100 mM ammonium bicarbonate, 23°C
# Protocol: SUFU32–484 cloned in pLJMBP6c was expressed in E. coli and purified as described above. The purified protein was digested with trypsin (Sigma–Aldrich) in 100 mM ammonium bicarbonate at 23°C. The protease was inactivated by adding 10 mM PMSF and sample-loading buffer followed by heating at 95°C for 5 min. Protein bands were separated by SDS–PAGE and visualized by Coomassie Blue staining. Proteolytic peptide fragments were identified by N-terminal sequencing (Alphalyse A/S) as well as MALDI–TOF and MALDI–TOF/TOF mass-spectrometric analyses (Ultraflex II and Autoflex III, Bruker Daltonics).
molecule,measurement,setting,value
"MBP-SUFU-Δ: MBP-SUFU with amino acids 279–360 replaced by the heptamer sequence PSRGEDP (protein, left off: MBP, N-terminal, kept | His6, C-terminal, state not stated) PGLHAIYGECRRLYPDQPNPLQVTAIVKYWLGGPDPLDYVSMYRNVGSPSANIPEHWHYISFGLSDLYGDNRVHEFTGTDGPSGFGFELTFRLKRETGESAPPTWPAELMQGLARYVFQSENTFCSGDHVSWHSPLDNSESRIQHMLLTEDPQMQPVQTPFGVVTFLQIVGVCTEELHSAQQWNGQGILELLRTVPIAGGPWLITDMRRGETIFEIDPHLQERVDKGIETDGSNLSGVSAKCAWDDLPSRGEDPIRTRQLESVHLKFNQESGALIPLCLRGRLLHGRHFTYKSITGDMAITFVSTGVEGAFATEEHPYAAHGPWLQILLTEEFVEKMLEDLEDLTSPEEFKLPKEYSWPEKKLKVSILPDVVFDSPL",Tm,[1],46.6 °C
"SUFU-FL: full-length SUFU, N-terminally Myc-tagged (protein, left off: Myc, N-terminal, kept, full-length SUFU, N-terminally Myc-tagged) MAELRPSGAPGPTAPPAPGPTAPPAFASLFPPGLHAIYGECRRLYPDQPNPLQVTAIVKYWLGGPDPLDYVSMYRNVGSPSANIPEHWHYISFGLSDLYGDNRVHEFTGTDGPSGFGFELTFRLKRETGESAPPTWPAELMQGLARYVFQSENTFCSGDHVSWHSPLDNSESRIQHMLLTEDPQMQPVQTPFGVVTFLQIVGVCTEELHSAQQWNGQGILELLRTVPIAGGPWLITDMRRGETIFEIDPHLQERVDKGIETDGSNLSGVSAKCAWDDLSRPPEDDEDSRSICIGTQPRRLSGKDTEQIRETLRRGLEINSKPVLPPINPQRQNGLAHDRAPSRKDSLESDSSTAIIPHELIRTRQLESVHLKFNQESGALIPLCLRGRLLHGRHFTYKSITGDMAITFVSTGVEGAFATEEHPYAAHGPWLQILLTEEFVEKMLEDLEDLTSPEEFKLPKEYSWPEKKLKVSILPDVVFDSPLH",GLI1 binding in Co-IP,GLI1 [2],no remarkable difference in GLI1 binding
same,repression of transcriptional activity induced by GLI1,GLI1 [3],efficiently repressed
same,repression of transcriptional activity induced by GLI2,GLI2,efficiently repressed
same,suppression of constitutive Hh pathway activity,[4],suppress constitutive pathway activity in Sufu ^−/− cells (c) with similar efficiency
"R123C: SUFU R123C mutation segregated with tumour development in a family predisposed to meningiomas (protein, UniProt Q9UMX1 1-484, looked up, variant R123C) Suppressor of fused homolog: MAELRPSGAPGPTAPPAPGPTAPPAFASLFPPGLHAIYGECRRLYPDQPNPLQVTAIVKYWLGGPDPLDYVSMYRNVGSPSANIPEHWHYISFGLSDLYGDNRVHEFTGTDGPSGFGFELTFCLKRETGESAPPTWPAELMQGLARYVFQSENTFCSGDHVSWHSPLDNSESRIQHMLLTEDPQMQPVQTPFGVVTFLQIVGVCTEELHSAQQWNGQGILELLRTVPIAGGPWLITDMRRGETIFEIDPHLQERVDKGIETDGSNLSGVSAKCAWDDLSRPPEDDEDSRSICIGTQPRRLSGKDTEQIRETLRRGLEINSKPVLPPINPQRQNGLAHDRAPSRKDSLESDSSTAIIPHELIRTRQLESVHLKFNQESGALIPLCLRGRLLHGRHFTYKSITGDMAITFVSTGVEGAFATEEHPYAAHGPWLQILLTEEFVEKMLEDLEDLTSPEEFKLPKEYSWPEKKLKVSILPDVVFDSPLH",inhibitory activity in cellular assays,[5],reduced inhibitory activity
"MBP-SUFU-FL: MBP fusion containing residues 32–483 of human SUFU and a C-terminal hexahistidine tag (protein, left off: MBP, N-terminal, kept | His6, C-terminal, state not stated, MBP fusion containing residues 32–483 of human SUFU and a C-terminal hexahistidine tag) PGLHAIYGECRRLYPDQPNPLQVTAIVKYWLGGPDPLDYVSMYRNVGSPSANIPEHWHYISFGLSDLYGDNRVHEFTGTDGPSGFGFELTFRLKRETGESAPPTWPAELMQGLARYVFQSENTFCSGDHVSWHSPLDNSESRIQHMLLTEDPQMQPVQTPFGVVTFLQIVGVCTEELHSAQQWNGQGILELLRTVPIAGGPWLITDMRRGETIFEIDPHLQERVDKGIETDGSNLSGVSAKCAWDDLSRPPEDDEDSRSICIGTQPRRLSGKDTEQIRETLRRGLEINSKPVLPPINPQRQNGLAHDRAPSRKDSLESDSSTAIIPHELIRTRQLESVHLKFNQESGALIPLCLRGRLLHGRHFTYKSITGDMAITFVSTGVEGAFATEEHPYAAHGPWLQILLTEEFVEKMLEDLEDLTSPEEFKLPKEYSWPEKKLKVSILPDVVFDSPL",protease-hypersensitive sites,trypsin,Several protease-hypersensitive sites were found clustered within residues 299–363
same,Tm,[1],50.1 °C
